According to patent publication US20260258084A1, “New Peptides as Selective IL-23 Receptor Antagonists” (Sanofi, priority 2022, published 2026):
Starred links: 1 amine or outer side, 2 acyl side, 3 side chain; linkers in the order of their positions; H or OH if unused. Positions of bridges follow the written chain, without caps; N, C: chain ends. Non-standard residues stand in square brackets, D forms with d. Yde = (2S)-2-amino-3-[4-[2-(dimethylamino)ethoxy]phenyl]propanoic acid, CN(C)CCOc1ccc(C[C@H](N[*:1])C(=O)[*:2])cc1; NdmK = (2S)-6-amino-2-(dimethylamino)hexanoic acid, CN(C)[C@@H](CCCCN[*:3])C(=O)[*:2]; Nmha = 6-(methylamino)hexanoic acid, CN(CCCCCC(=O)[*:2])[*:1]; Phe(4-OMe) = COc1ccc(C[C@H](N[*:1])C(=O)[*:2])cc1; Trp(7-Me) = Cc1cccc2c(C[C@H](N)C(=O)O)c[nH]c12; αMeLys(Me2) = CN(C)CCCC[C@](C)(N)C(=O)O; 2Nal = N[C@@H](Cc1ccc2ccccc2c1)C(=O)O; AEF = NCCOc1ccc(C[C@H](N)C(=O)O)cc1; 3Pal = N[C@@H](Cc1cccnc1)C(=O)O; αMeL = CC(C)C[C@](C)(N)C(=O)O; Nmapt = not defined here; Thp = NC1(C(=O)O)CCOCC1; Aib = CC(C)(N)C(=O)O; Ahx = NCCCCCC(=O)O; Ava = NCCCCC(=O)O; βAla = NCCC(=O)O; Sar = CNCC(=O)O

T1: IL-23 receptor on the surface of HEK-Blue IL-23 cells (UniProt Q5VWK5 24-629, limits assumed)
T1 sequence (looked up): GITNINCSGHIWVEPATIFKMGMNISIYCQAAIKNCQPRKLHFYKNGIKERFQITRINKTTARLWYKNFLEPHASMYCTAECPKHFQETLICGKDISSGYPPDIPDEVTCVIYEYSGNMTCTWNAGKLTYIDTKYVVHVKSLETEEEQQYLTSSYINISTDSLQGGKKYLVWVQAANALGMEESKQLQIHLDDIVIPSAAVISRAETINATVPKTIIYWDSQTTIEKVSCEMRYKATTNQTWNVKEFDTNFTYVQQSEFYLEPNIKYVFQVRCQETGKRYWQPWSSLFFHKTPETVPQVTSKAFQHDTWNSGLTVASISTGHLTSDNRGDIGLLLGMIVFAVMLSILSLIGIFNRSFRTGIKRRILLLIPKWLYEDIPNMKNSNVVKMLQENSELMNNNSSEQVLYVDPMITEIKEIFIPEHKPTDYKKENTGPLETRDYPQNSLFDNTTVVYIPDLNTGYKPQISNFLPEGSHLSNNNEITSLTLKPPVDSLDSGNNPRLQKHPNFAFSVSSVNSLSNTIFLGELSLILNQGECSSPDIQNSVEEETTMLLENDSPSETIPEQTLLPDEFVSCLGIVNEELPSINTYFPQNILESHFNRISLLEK

B1: Compound of SEQ ID NO: 48 (peptide)
peptide: [Ava]CNT[Trp(7-Me)]K(Ac)C[Yde][2Nal][Aib]ENH[βAla]-NH2
modifications: lactam N-11; disulfide 2-7
SMILES: CC(=O)NCCCC[C@@H]1NC(=O)[C@H](Cc2c[nH]c3c(C)cccc23)NC(=O)[C@H]([C@@H](C)O)NC(=O)[C@H](CC(N)=O)NC(=O)[C@@H]2CSSC[C@H](NC1=O)C(=O)N[C@@H](Cc1ccc(OCCN(C)C)cc1)C(=O)N[C@@H](Cc1ccc3ccccc3c1)C(=O)NC(C)(C)C(=O)N[C@H](C(=O)N[C@@H](CC(N)=O)C(=O)N[C@@H](Cc1c[nH]cn1)C(=O)NCCC(N)=O)CCC(=O)NCCCCC(=O)N2
B2: Compound of SEQ ID NO: 40 (peptide)
peptide: [Nmha]CNTWQC[Yde][2Nal][αMeL]DN[dL]-NH2
modifications: lactam N-11; disulfide 2-7
SMILES: CC(C)C[C@@H](NC(=O)[C@H](CC(N)=O)NC(=O)[C@@H]1CC(=O)N(C)CCCCCC(=O)N[C@H]2CSSC[C@H](NC(=O)[C@H](CCC(N)=O)NC(=O)[C@H](Cc3c[nH]c4ccccc34)NC(=O)[C@H]([C@@H](C)O)NC(=O)[C@H](CC(N)=O)NC2=O)C(=O)N[C@@H](Cc2ccc(OCCN(C)C)cc2)C(=O)N[C@@H](Cc2ccc3ccccc3c2)C(=O)N[C@@](C)(CC(C)C)C(=O)N1)C(N)=O
B3: Compound of SEQ ID NO: 57 (peptide)
peptide: [Ava]CNTWQC[Yde][2Nal][Aib]ENNI-NH2
modifications: lactam N-11; disulfide 2-7
SMILES: CC[C@H](C)[C@H](NC(=O)[C@H](CC(N)=O)NC(=O)[C@H](CC(N)=O)NC(=O)[C@@H]1CCC(=O)NCCCCC(=O)N[C@H]2CSSC[C@H](NC(=O)[C@H](CCC(N)=O)NC(=O)[C@H](Cc3c[nH]c4ccccc34)NC(=O)[C@H]([C@@H](C)O)NC(=O)[C@H](CC(N)=O)NC2=O)C(=O)N[C@@H](Cc2ccc(OCCN(C)C)cc2)C(=O)N[C@@H](Cc2ccc3ccccc3c2)C(=O)NC(C)(C)C(=O)N1)C(N)=O
notes: §1 lactam bridge; @2 disulfide bridge
B4: Compound of SEQ ID NO: 4 (peptide)
peptide: [Ava]CNTWQC[Phe(4-OMe)][2Nal][Aib]ENG-NH2
modifications: lactam N-11; disulfide 2-7
SMILES: COc1ccc(C[C@@H]2NC(=O)[C@@H]3CSSC[C@H](NC(=O)CCCCNC(=O)CC[C@@H](C(=O)N[C@@H](CC(N)=O)C(=O)NCC(N)=O)NC(=O)C(C)(C)NC(=O)[C@H](Cc4ccc5ccccc5c4)NC2=O)C(=O)N[C@@H](CC(N)=O)C(=O)N[C@@H]([C@@H](C)O)C(=O)N[C@@H](Cc2c[nH]c4ccccc24)C(=O)N[C@@H](CCC(N)=O)C(=O)N3)cc1
B5: Compound of SEQ ID NO: 46 (peptide)
peptide: [Ava]CNT[Trp(7-Me)]K(Ac)C[Yde][2Nal][Thp]ENH[Sar]-NH2
modifications: lactam N-11; disulfide 2-7
SMILES: CC(=O)NCCCC[C@@H]1NC(=O)[C@H](Cc2c[nH]c3c(C)cccc23)NC(=O)[C@H]([C@@H](C)O)NC(=O)[C@H](CC(N)=O)NC(=O)[C@@H]2CSSC[C@H](NC1=O)C(=O)N[C@@H](Cc1ccc(OCCN(C)C)cc1)C(=O)N[C@@H](Cc1ccc3ccccc3c1)C(=O)NC1(CCOCC1)C(=O)N[C@H](C(=O)N[C@@H](CC(N)=O)C(=O)N[C@@H](Cc1c[nH]cn1)C(=O)N(C)CC(N)=O)CCC(=O)NCCCCC(=O)N2
B6: Compound of SEQ ID NO: 47 (peptide)
peptide: [Ava]CNT[Trp(7-Me)]K(Ac)C[Yde][2Nal][αMeL]ENH[Sar]-NH2
modifications: lactam N-11; disulfide 2-7
SMILES: CC(=O)NCCCC[C@@H]1NC(=O)[C@H](Cc2c[nH]c3c(C)cccc23)NC(=O)[C@H]([C@@H](C)O)NC(=O)[C@H](CC(N)=O)NC(=O)[C@@H]2CSSC[C@H](NC1=O)C(=O)N[C@@H](Cc1ccc(OCCN(C)C)cc1)C(=O)N[C@@H](Cc1ccc3ccccc3c1)C(=O)N[C@@](C)(CC(C)C)C(=O)N[C@H](C(=O)N[C@@H](CC(N)=O)C(=O)N[C@@H](Cc1c[nH]cn1)C(=O)N(C)CC(N)=O)CCC(=O)NCCCCC(=O)N2
B7: Compound of SEQ ID NO: 39 (peptide)
peptide: [Ahx]E[Ava]WQT[Phe(4-OMe)][2Nal][Aib]DNN-NH2
modifications: lactam N-10; ester 2-6
SMILES: COc1ccc(C[C@@H]2NC(=O)[C@H]3NC(=O)[C@H](CCC(N)=O)NC(=O)[C@H](Cc4c[nH]c5ccccc45)NC(=O)CCCCNC(=O)[C@H](CCC(=O)O[C@@H]3C)NC(=O)CCCCCNC(=O)C[C@@H](C(=O)N[C@@H](CC(N)=O)C(=O)N[C@@H](CC(N)=O)C(N)=O)NC(=O)C(C)(C)NC(=O)[C@H](Cc3ccc4ccccc4c3)NC2=O)cc1
B8: Compound of SEQ ID NO: 44 (peptide)
peptide: [Nmapt]CKWQC[AEF][2Nal][αMeL]EA[dL]-NH2
modifications: lactam N-10; disulfide 2-6; not fully specified (residue 3); printed as Nmapt(§1)-C(§3)(@2)-K[aAc](@3)-W-Q-C(@2)-Yae-Nal-Mle-E(§1)-A-(D-Leu)-NH2; reading uncertain; also: Cys2 carboxyl joined to Lys3 epsilon-NH2 (isopeptide bond)
B9: Compound of SEQ ID NO: 45 (peptide)
peptide: [Ava]CNT[Trp(7-Me)]K(Ac)C[Yde][2Nal][Aib]ENH[Sar]-NH2
modifications: lactam N-11; disulfide 2-7
SMILES: CC(=O)NCCCC[C@@H]1NC(=O)[C@H](Cc2c[nH]c3c(C)cccc23)NC(=O)[C@H]([C@@H](C)O)NC(=O)[C@H](CC(N)=O)NC(=O)[C@@H]2CSSC[C@H](NC1=O)C(=O)N[C@@H](Cc1ccc(OCCN(C)C)cc1)C(=O)N[C@@H](Cc1ccc3ccccc3c1)C(=O)NC(C)(C)C(=O)N[C@H](C(=O)N[C@@H](CC(N)=O)C(=O)N[C@@H](Cc1c[nH]cn1)C(=O)N(C)CC(N)=O)CCC(=O)NCCCCC(=O)N2
B10: Compound of SEQ ID NO: 43 (peptide)
peptide: [Ava]CNT[Trp(7-Me)]QC[Yde][2Nal][Aib]ESH-NH2
modifications: lactam N-11; disulfide 2-7
SMILES: Cc1cccc2c(C[C@@H]3NC(=O)[C@H]([C@@H](C)O)NC(=O)[C@H](CC(N)=O)NC(=O)[C@@H]4CSSC[C@H](NC(=O)[C@H](CCC(N)=O)NC3=O)C(=O)N[C@@H](Cc3ccc(OCCN(C)C)cc3)C(=O)N[C@@H](Cc3ccc5ccccc5c3)C(=O)NC(C)(C)C(=O)N[C@H](C(=O)N[C@@H](CO)C(=O)N[C@@H](Cc3c[nH]cn3)C(N)=O)CCC(=O)NCCCCC(=O)N4)c[nH]c12

molecular target: T1, IL-23 receptor on the surface of …; assay: cell-based or functional assay

Compared with [Ava]C[NdmK]WK(Ac)C[Yde][2Nal][αMeLys(Me2)]EN[3Pal][Sar]-NH2 (lactam N-10; disulfide 2-6) [Compound of SEQ ID NO: 36], B1 is lower in “pSTAT3 (nM)” value: 13.9 nM for the first, 0.6 nM for the second.

Compared with B2, [Ava]CNTWK(Ac)C[Yde][2Nal][Aib]EN[3Pal]I-NH2 (lactam N-11; disulfide 2-7; also: places amidation at position 13) [Compound of SEQ ID NO: 37] is lower in “pSTAT3 (nM)” value: 50.8 nM for the first, 2 nM for the second.

Going from [Ava]CNTWK(Ac)C[Yde][2Nal][Aib]ENNI-NH2 (lactam N-11; disulfide 2-7; also: places amidation at position 13, §1 lactam bridge; @2 disulfide bridge) [Compound of SEQ ID NO: 38] to B3, the “pSTAT3 (nM)” value falls from 11.9 nM to 5.5 nM.

First: B4
Second: B5
The “pSTAT3 (nM)” value of the first is higher: 34.8 nM for the first, 0.84 nM for the second.

Going from B6 to B7, the “pSTAT3 (nM)” value rises from 0.57 nM to 26.4 nM.

Compared with B8, B9 is lower in “pSTAT3 (nM)” value: 42.5 nM for the first, 0.67 nM for the second.

In the case of B10, the “pSTAT3 (nM)” value is reported as 1.31 nM.
